Measurements from patent US6632625 (MERCK, dated 2003).

Target: T1, recombinant human leptin (human, UniProt P41159 22-167, 125I label on the tracer form (125I-leptin, NEN); position not stated)
T1 construct: also called recombinant leptin; 125I-leptin
Experiment: 125I-leptin binding on transfected COS cells

T1 sequence (P41159 22-167 limits assumed): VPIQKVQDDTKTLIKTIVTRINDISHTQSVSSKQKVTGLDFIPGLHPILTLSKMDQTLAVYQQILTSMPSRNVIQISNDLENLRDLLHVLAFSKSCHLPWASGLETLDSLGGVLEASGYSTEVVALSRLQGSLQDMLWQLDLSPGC

B1: substitution mutant (420-496)TO(500-632) of the human OB-R (receptor)
chain: FNLSYPITPWRFKLSCMPPNSTYDYFLLPAGLSKNTSNSNGHYETAVEPKFNSSGTHFSNLSKTTFHCCFRSEQDRNCSLCADNIEGKTFVSTVNSLVFQQIDANWNIQCWLKGDLKLFICYVESLFKNLFRNYNYKVHLLYVLPEVLEDSPLVPQKGSFQMVHCNCSVHECCECLVPVPTAKLNDTLLMCLKITSGGVIFQSPLMSVQPINMVKPDPPLGLHMEITDDGNLKISWSSPPLVPFPLQYQVKYSENSTTVIREADKIVSATSLLVDSILPGSSYEVQVRGKRLDGPGIWSDWSTPRVFTTQDVIYFPPKILTSVGSNVSFHCIYKKENKIVPSKEIVWWMNLAEKIPQSQYDVVSDHVSKVTFFNLNETKPRGKFTYDAVYCCNEHECHFQPIFLLSGYTMWIRINHSLGSLDSPPTCVLPDSVVKPLPPSSVKAEITINIGLLKISWEKPVFPENNLQFQIRYGLSGKEVQWKMYEVYDAKSKSVSLPVPDLCAVYAVQVRCKRLDGLGYWSNWSNPAYTVECIFQPIFLLSGYTMWIRINHSLGSLDSPPTCVLPDSVVKPLPPSSVKAEITINIGLLKISWEKPVFPENNLQFQIRYGLSGKEVQWKMYEVYDAKSKSVSLPVPDLCAVYAVQVRCKRLDGLGYWSNWSNPAYTVVMDIKVPMRGPEFWRIINGDTMKKEKNVTLLWKPLMKNDSLCSVQRYVINHHTSCNGTWSEDVGNHTKFTFLWTEQAHTVTVLAINSIGASVANFNLTFSWPMSKVNIVQSLSAYPLNSSCVIVSWILSPSDYKLMYFIIEWKNLNEDGEIKWLRISSSVKKYYIHDHFIPIEKYQFSLYPIFMEGVGKPKIINSFTQDDIEKHQSDAGLYVIVPVIISSSILLLGTLLISHQRMKKLFWEDVPNPKNCSWAQGLNFQKPETFEHLFIKHTASVTCGPLLLEPETISEDISVDTSWKNKDEMMPTTVVSLLSTTDLEKGSVCISDQFNSVNFSEAEGTEVTYEAESQRQPFVKYATLISNSKPSETGEEQGLINSSVTKCFSSKNSPLKDSFSNSSWEIEAQAFFILSDQHPNIISPHLTFSEGLDELLKLEGNFPEENNDKKSIYYLGVTSIKKRESGVLLTDKSRVSCPFPAPCLFTDIRVLQDSCSHFVENNINLGTSSKKTFASYMPQFQTCSTQTHKIMENKMCDLTV
- binding result: no binding (tested: 0.2 nM)
